Source: the RNAGym collection of RNA variant scans (doi:10.1073/pnas.2313332121)

B1: TPR t1 (parent)
chain: GACCAAUCUGCCCUCAGAGCUCGAGAACAUCUUCGGAUGCAGAGGAGGCAGGCUUCGGUGGCGCGAUAGCGCCAACGUCCUCAACCUCCAAUGCAUCCCACCACAUGAUGAUGCCUGAAGAGCCUUGGUUUUUUG

Variants of: B1
Experiment: polymerase ribozyme fitness, log enrichment relative to wild type (log ratio); higher = more active; in vitro selection for triplet polymerase activity
Outline: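 After PCR construction and transcription, each subunit's mutant library from a heterodimeric triplet polymerase ribozyme was annealed with a biotinylated primer, the partner subunit and triplets. Incubation was frozen, at −7 °C, and extended constructs were gel-excised, bound to streptavidin beads and amplified by RT-PCR, in one selection round done in triplicate. Fitness is the logarithm of a genotype's enrichment divided by that of the wild type, from inverse-variance-weighted replicate averages of Illumina-sequenced inputs and outputs. The base of the logarithm is 2, and genotypes needed ≥10 input reads and ≥1 read per output.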

Going from C94G C102A to U96A A121C U126A, the “polymerase ribozyme fitness (log ratio)” value rises from -3.54 to -0.501.

Going from C88A U133A to C94A G135U, the “polymerase ribozyme fitness (log ratio)” value falls from 0.0129 to -1.66.

C89G A111C and U92A A119G G127C are within 0.2 log units of each other in “polymerase ribozyme fitness (log ratio)” value: -2.08 for the first, -2.05 for the second.

C88U G110C and C88G G117C U133A are within 0.2 log units of each other in “polymerase ribozyme fitness (log ratio)” value: -3.92 for the first, -3.79 for the second.

Compared with A91U A121C C124A, C85U C86G is lower in “polymerase ribozyme fitness (log ratio)” value: 0.449 for the first, -1.13 for the second.

Compared with U92A C124U, C85U U112A G122U U126G is lower in “polymerase ribozyme fitness (log ratio)” value: -1.43 for the first, -4.47 for the second.

First: U96A G110U
Second: A95U G120A
The “polymerase ribozyme fitness (log ratio)” value of the first is lower: -2.56 for the first, -0.385 for the second.

Compared with A91C A118G, C85G G110A U126C is lower in “polymerase ribozyme fitness (log ratio)” value: -2.33 for the first, -2.99 for the second.

Going from C94A C114A G122A to C88G U130G, the “polymerase ribozyme fitness (log ratio)” value rises from -3 to -0.5.

First: C88G U130C
Second: U87C G120U
The “polymerase ribozyme fitness (log ratio)” value of the first is higher: -0.362 for the first, -1.06 for the second.

Compared with A95U C115A, A90U G110U is lower in “polymerase ribozyme fitness (log ratio)” value: -1.22 for the first, -3.55 for the second.

First: G93C C123G
Second: C86A C123U C124G
The “polymerase ribozyme fitness (log ratio)” value of the first is lower: -0.285 for the first, 0.744 for the second.

First: C94U A95C
Second: C94U A95G
The “polymerase ribozyme fitness (log ratio)” value of the first is lower: -1.19 for the first, -0.3 for the second.

Going from C86A U92A G93C G120A to G93U U112G, the “polymerase ribozyme fitness (log ratio)” value rises from -4.42 to -1.63.

Compared with C94G C101U, U87C C124U is higher in “polymerase ribozyme fitness (log ratio)” value: -1.46 for the first, 0.583 for the second.

Going from C97A U129A to C85A C101G U109G G117C, the “polymerase ribozyme fitness (log ratio)” value falls from -4.83 to -7.01.

U87A G120U and C89U C115A are within 0.2 log units of each other in “polymerase ribozyme fitness (log ratio)” value: 0.227 for the first, 0.206 for the second.

First: G93A A95C A121U
Second: C97U U112G
The “polymerase ribozyme fitness (log ratio)” value of the first is higher: 0.651 for the first, -0.123 for the second.

First: A90G U125G
Second: C86G U112G
The “polymerase ribozyme fitness (log ratio)” value of the first is lower: -0.567 for the first, 0.00839 for the second.

Going from C89G C104A to C85U U87A C88A, the “polymerase ribozyme fitness (log ratio)” value rises from -3.34 to -2.23.

Going from A90G A95C to C89A A111U G122A, the “polymerase ribozyme fitness (log ratio)” value falls from -0.759 to -4.54.

Going from A90G C101G C115G to C89G A100C, the “polymerase ribozyme fitness (log ratio)” value falls from -2.74 to -3.25.

Going from C88U G93A to C85G U132A, the “polymerase ribozyme fitness (log ratio)” value falls from -0.936 to -1.6.

Compared with A95G A111C G113A A119C G120C, C97U G110U A111G is higher in “polymerase ribozyme fitness (log ratio)” value: -3.77 for the first, -3.06 for the second.

Going from U87A G122A to C89A U129G, the “polymerase ribozyme fitness (log ratio)” value falls from -0.168 to -2.64.

Going from A95U G113A G127A to G93A U132A, the “polymerase ribozyme fitness (log ratio)” value rises from -2.73 to -1.15.

Going from U92C C123G to C86G C101A, the “polymerase ribozyme fitness (log ratio)” value falls from 0.159 to -1.32.

Going from G93A G117C U130G to G93C G127A, the “polymerase ribozyme fitness (log ratio)” value rises from -5.98 to -1.89.

First: U96A G117C
Second: A90G U112A
The “polymerase ribozyme fitness (log ratio)” value of the first is lower: -5.1 for the first, 1.08 for the second.

Compared with C94U A108U C114U U131G, U96G G127A is higher in “polymerase ribozyme fitness (log ratio)” value: -7.59 for the first, -2.63 for the second.

First: U96G G117U
Second: C86G G93C U132C
The “polymerase ribozyme fitness (log ratio)” value of the first is higher: -2.13 for the first, -2.42 for the second.

First: U96A G128U
Second: C85A C89A U106A C114A
The “polymerase ribozyme fitness (log ratio)” value of the first is higher: -1.89 for the first, -5.22 for the second.

G93C U112G and C86U A90U are within 0.2 log units of each other in “polymerase ribozyme fitness (log ratio)” value: -0.938 for the first, -1.08 for the second.

Going from A95G U116A C124U to U96A U116G U130A, the “polymerase ribozyme fitness (log ratio)” value falls from -0.576 to -3.12.

Going from C89U U109C to A91G U125A, the “polymerase ribozyme fitness (log ratio)” value rises from -3.31 to -0.619.

Compared with U87G A111U, U96A C99G G110C is lower in “polymerase ribozyme fitness (log ratio)” value: -2.77 for the first, -6.97 for the second.

First: G93C U109A G117U G120C
Second: C94U G128U
The “polymerase ribozyme fitness (log ratio)” value of the first is lower: -6.83 for the first, -1.7 for the second.

First: C88G G120A U129A
Second: A91C C104U
The “polymerase ribozyme fitness (log ratio)” value of the first is lower: -1.48 for the first, -1.08 for the second.

Going from C85A A95U A100U to C86A A90U, the “polymerase ribozyme fitness (log ratio)” value rises from -3.28 to -1.19.

Going from C86A A90G to C98A, the “polymerase ribozyme fitness (log ratio)” value falls from 0.132 to -5.14.

First: C94U U116C G128U
Second: U87G C124A
The “polymerase ribozyme fitness (log ratio)” value of the first is lower: -3.48 for the first, 0.735 for the second.

First: G93A C98U C124G
Second: A90U C114G G117A
The “polymerase ribozyme fitness (log ratio)” value of the first is higher: 0.653 for the first, -4.57 for the second.

Going from C94U G117C U130A to C94G C123A C124A, the “polymerase ribozyme fitness (log ratio)” value rises from -6.35 to 1.47.

First: C85U C88U
Second: C88A C101U A111U
The “polymerase ribozyme fitness (log ratio)” value of the first is higher: -0.176 for the first, -3.57 for the second.

Going from C89A G120A G128C U132C to A91G U106G A111G, the “polymerase ribozyme fitness (log ratio)” value rises from -3.37 to -3.06.

Going from C94U U96A to C94A G110A, the “polymerase ribozyme fitness (log ratio)” value falls from -1.02 to -2.19.

Going from U92A C123A to U92A C123G, the “polymerase ribozyme fitness (log ratio)” value rises from -3.22 to -0.636.

Compared with C89A C123U, C89A U130G is lower in “polymerase ribozyme fitness (log ratio)” value: -0.0853 for the first, -1.51 for the second.

First: U96G U106C
Second: A90C C115A
The “polymerase ribozyme fitness (log ratio)” value of the first is lower: -1.3 for the first, -0.409 for the second.

Going from C86U G110C to C86G G120A, the “polymerase ribozyme fitness (log ratio)” value rises from -3.72 to -0.356.

First: C88U U129C
Second: A90U U112G
The “polymerase ribozyme fitness (log ratio)” value of the first is higher: -0.178 for the first, -3.12 for the second.

First: G93C C102A U116G
Second: A91U U112A G117C C123U U134A
The “polymerase ribozyme fitness (log ratio)” value of the first is lower: -5.28 for the first, -2.54 for the second.

Going from U87A C115U to U87A C115A, the “polymerase ribozyme fitness (log ratio)” value rises from -0.739 to 0.108.

Compared with C94U C104U, U87A A105U U116C is lower in “polymerase ribozyme fitness (log ratio)” value: -0.577 for the first, -3.54 for the second.

Going from C85G C97U to U96A G113A C115A G120C, the “polymerase ribozyme fitness (log ratio)” value falls from -2.99 to -3.71.

Going from G93C G135C to C86U U112A, the “polymerase ribozyme fitness (log ratio)” value rises from -1.15 to 0.825.

First: C94G U131G U132G
Second: C85G G117C G128U
The “polymerase ribozyme fitness (log ratio)” value of the first is higher: -1.88 for the first, -7.06 for the second.

Going from C89G G110U to A90C A100U A111G, the “polymerase ribozyme fitness (log ratio)” value rises from -2.85 to -1.79.

Going from C86U G113A G127C to C85U G120A, the “polymerase ribozyme fitness (log ratio)” value rises from -1.64 to -0.267.

First: C86U C97U
Second: C97A A105G
The “polymerase ribozyme fitness (log ratio)” value of the first is higher: -0.517 for the first, -5.98 for the second.

First: C86G A100U G128C
Second: G93A C114A A118C
The “polymerase ribozyme fitness (log ratio)” value of the first is higher: -3.41 for the first, -3.7 for the second.

First: U92A A111G
Second: C85G G117C
The “polymerase ribozyme fitness (log ratio)” value of the first is higher: -3.82 for the first, -5.23 for the second.

Compared with U87C G120A G127A, A95C C97U is lower in “polymerase ribozyme fitness (log ratio)” value: -1.22 for the first, -2.11 for the second.

Compared with C88U A121C, A90C A91C G110A is lower in “polymerase ribozyme fitness (log ratio)” value: 1.77 for the first, -4.36 for the second.

First: G93C G110U G120A
Second: C89A C124U
The “polymerase ribozyme fitness (log ratio)” value of the first is lower: -3.34 for the first, 0.618 for the second.

Going from C89G A111G G113C to C88G C104A U112G, the “polymerase ribozyme fitness (log ratio)” value falls from -3.54 to -4.26.

First: C97A C104A
Second: C97G A118U U126A
The “polymerase ribozyme fitness (log ratio)” value of the first is higher: -5.08 for the first, -5.69 for the second.

Going from G93U C124G to C89A C94A C115U U130A, the “polymerase ribozyme fitness (log ratio)” value falls from 0.697 to -3.36.

Compared with C94A C115U, C94A U112A is higher in “polymerase ribozyme fitness (log ratio)” value: -2.44 for the first, 1.02 for the second.

Compared with C85U U109A, C85A G113C G122C U129C is higher in “polymerase ribozyme fitness (log ratio)” value: -6.03 for the first, -4.98 for the second.

Compared with C86A C114U A119U, U92G C101A is lower in “polymerase ribozyme fitness (log ratio)” value: -3.57 for the first, -4.03 for the second.

Going from U92C U132C to C85U C99U, the “polymerase ribozyme fitness (log ratio)” value falls from -1.85 to -4.89.

First: G93A C115G
Second: U87A G113A
The “polymerase ribozyme fitness (log ratio)” value of the first is lower: -2.4 for the first, -1.76 for the second.

Going from C88A C97U U109A G110C to A91C, the “polymerase ribozyme fitness (log ratio)” value rises from -6.36 to -1.4.

Compared with A91G, A91U is lower in “polymerase ribozyme fitness (log ratio)” value: -0.586 for the first, -1.81 for the second.

Going from A90U U125G to C86A A91U, the “polymerase ribozyme fitness (log ratio)” value falls from -1.11 to -2.01.

Compared with C88G G120A, C88G G120C is higher in “polymerase ribozyme fitness (log ratio)” value: -1.21 for the first, -0.00486 for the second.

Going from C89U C123A to C97U G110C, the “polymerase ribozyme fitness (log ratio)” value falls from 0.125 to -3.29.

First: C88A G113U
Second: U87G G113U
The “polymerase ribozyme fitness (log ratio)” value of the first is higher: -2.76 for the first, -3.33 for the second.

First: C85A A100C
Second: A95G U112C C124U
The “polymerase ribozyme fitness (log ratio)” value of the first is lower: -2.71 for the first, 1.01 for the second.

Compared with C85A C102U A121U C124U, C85A G110A G127A is lower in “polymerase ribozyme fitness (log ratio)” value: -1.07 for the first, -3.71 for the second.

Going from C97U C124U to C94A G120C, the “polymerase ribozyme fitness (log ratio)” value falls from 0.498 to -1.64.

First: A90G C101A C123A
Second: C85G U130G
The “polymerase ribozyme fitness (log ratio)” value of the first is higher: -0.711 for the first, -2.71 for the second.

With C86U U87A C101A U129G the “polymerase ribozyme fitness (log ratio)” value was -3.91.
